Experimental data from the nanobody polyreactivity screen of Harvey et al. (2022).

Test: yeast display, Sf9 membrane polyspecificity reagent, FACS + sequencing; frameworks hold sequencing errors
How it was run: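 Galactose-induced (36–48 hours) yeast carrying a synthetic nanobody display library were exposed to 10% biotinylated, detergent-solubilized Sf9 membrane reagent at 4 °C for 1 hour. FACS followed streptavidin microbead enrichment, using low and high (top ~1%) gates for expression (anti-HA) and reagent binding (streptavidin). Colony PCR, MiSeq 2 × 250 sequencing and CDR-length filtering followed. Labels for polyreactivity reflect the gate of origin.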

Sequence	polyreactivity (PSR sort gate)
QVQLQESGGGLVLAGGSLRLSCSASGNISVYGSMGWYRQAPGKVREFVATIDPGTNTNYADSVKDRFTISRDNAKNTVYLQMNSLKPEDTAVYYCAVEAGSDWPYRYWGQGTQVTVSS	low polyreactivity
QVQLVESGGGLVQAGGSLRLSCAASGSTFKRYAMGWYRQAPGKERELVASISQRGGTTYYADSVKGRFTISRDNAKNTVDLQMNSLKPEDTAVYYCAKGFGWTRTIYDYWGQGTQVTVSS	high polyreactivity
QVQLVESVGGLVQAGGRLRLSCAASGLTFTHYTMGWYIQAPGKERELVAAISQTGGSTYYADSVKGRFTISRDNEKNTVYLQMNSQKPEDTADYYCSRVFPRPRPGYYNWGQGTQVTVSS	high polyreactivity
QVQLVESGGGLVQAGGSLRLSGAASGRTFGYYAMGWYRQAPGKERELVAAISRGGSTYYADSVKGRFTISRDNAKNTVYLQMNSPKPEDTAVYYCAADYWGYGPEMGYWGQGTQVTVSS	low polyreactivity
QVQLVESGGGLVQAGGSHRLSCAASGQTVYYYPMGWYRQAPGKEREVVASISTGGNTYYADSVKGRFTISRDNAKNTVYLQMNSLKPEDTAVYYCAAGLYSWSGFASYNSAYGYWGQGTQVTVSS	low polyreactivity
HVQLVESGGGLVQAGGSLRLSCAASGRISDRYAMGWSRQAPGKEREFVAAISWSGASTYYADSVKGRFTISRDNAKNTVYLQMNSLKAEDTAVYYCAARRRHKYDYWGQGTQVTVSS	high polyreactivity
QVQLVESGGGLVQAGGSLRLSCAASGRTFYHYAMGWYRQAPGKEREFVAAISVSGGRTYYADSVKGRFTISRDNAKNTVYLQMNSLKPEDTAVYYCAARSGAQRGGGYWGQGTQVTVSS	high polyreactivity
QVQLVESGGGLVQAGGSLRLSCAASGSTFSYYTMGWYRQAPGKERELVAAISRTGGSTYYADSVKGRFTISRDNAKNTVYLQMNSLKPEDTAVYYCAAKGYVGRYDYWGQGTQVTVSS	high polyreactivity
QVQLVESGGGLVQAGGSLRLSCPASGSIFYSYAMGWYRQAPGKERELVAAISWDASTYYADSVKGRFTISRDNAKNTVYLQMNSLKPEYTAVYYCNAVYRVWYAEWSTVGSPHDYWGQGTQVTVSS	low polyreactivity
QVQLVESGGGLVQAGGSLRLSCAASGGILWGNGMGWYRQAPGKERELVAAISTGGSTNYADSVKGRFTISRDNAKNTVYLQMNSLKPEETAVYYCAGGAGGVRYSFYWNDYWGQGTQVTVSS	high polyreactivity
QVQLVESGVGLVQAGGSLRLSCAASVYTFFIYAMRWYRHAHGQERELVARIRATGDSTYYADSVKGRFTISRDNAKNTVYLQMNSLKPDDTAVYYFNVRPVYSYREYGYWGQGTQVTVSS	high polyreactivity
QVQLVESGGGLVQAGGRLRLSCAASGRTYYTYAMGWYRQAPGKERELVAAITWDGGSTYYADSVKGRFTISRDNAKNTVYLQMNSLKPEDTAVYYCADDLYDTYGTFDYWGQGTQVTVSS	low polyreactivity
QVQLVESGGGLVQAGGSLRLSCAASGIIFRSNAMGWYRQAAGNERELVAAISQRGGSTYYADSVKGRFTISRDNAKNTVYLQMNSLKPEDTAVYYCNALQRRYGGGGNDYWGQGTQVTVSS	high polyreactivity
QVQLVESGGGLVQAGGSLRLSCAASGRTFITYAMGWYRQAPGKERELVAAISSGGGRTYYADSVKGRFTISRDNAKNTVYLQMNSLKPEDTAVYYCAALYVYPLTYKPSRYPYDYWGQGTQVTVSS	high polyreactivity
QVQLVESGGGLVLAGGRLRLSFAASGFIFYQYAKAWYRQATGKEWEFVAAISRNGGSTYYADSVKGRFTISRDNATNTVYLQMNSLKPEDTAVYYCNRDCGGLWSENGYWGQGPQVTVSS	high polyreactivity
QVQLVESGGGLVQAGGSLRLSCAASGSTFVNYVMGWYRQAPGKERELVAAISRRGTSTRYADSVKGRFTISRDNAKNTVYLQMNSLKPEDTAVYYCAATRYVGVTGYGYWGQGTQVTVSS	high polyreactivity
QVQHVEKGGALVQAGGSLRLSCAASGFTVDWYAMGWYIQAPGKERELVAAITTSGGTKYYADSVKGRFTISRDNAKNTVYLLMNCLNPEDTAVYYCAAEGTWSRNYDYWGQGTQVTVSS	low polyreactivity
QVQLVESGGGLVQAGGSLRLSCAASGITFRVYAMGWYRPAPGKERELVAAITSSGGSTYYADSVKGRFTISRDYAKNTVYLQMNSLKPEDTAVYYCNKVTYGYAYWRYDGYDYWGQGTQVTVSS	low polyreactivity
QVQIVESGGGIVQAGGSLRLSCAASGFIFVFNAMGWNRKAPGKERELVAAINGGDNTNYADSVKGRFTISRDNAKNTVYLQINSLKPEDTAVYYCAAEGEDSMWTGYDYDYWGQGTQVTVSS	low polyreactivity
QGQLVDSGGGLVQAGGSLRLSCAASGFTVTRYAMGWYRTATGKERELVAAISWNSGSTYYADSVKGRFTISRDNAKNTVYLQMNSLKPEDTAVYYCAARDDQGYCYWGQGTQVTVSS	high polyreactivity
QVQLVESGGGLVQAGGSLRLSCAASGITFGVYTMGWYRQAPGKEREFVAVISGRGGSTYYADSVKGRFTISRDNAKNTVYLQMNSLKPEDTAVYYCAADYYYIVDYWGQGTQVTVSS	high polyreactivity
PLQLVESGGGLGQAGGSLRLSCAASGSTFGHNAMGWYRPAPGKERELVAAISISGGRTYYADSVKGRFTISRDNAKNTVYLQMISRKPEDTAVYYCAAEVWYVGDNYDYWGQGTQVTLSS	high polyreactivity

Sequence	polyreactivity (PSR sort gate)
QVQLVESGGGLVQAGGSLRLSCAASGITSNTYAKGWYRQATGKERELVATITSGGSTNYADSVKGRFTISRDNAKNTVYLQMNSLKPEDTAVYFCNREYWLPTQFDYWGQGTQVTVSS	low polyreactivity
QVQLVESGGGLVQAGGSLRLSCAASGFTLDDYAMGWYRQAPGKEREWVAAITSGGTYADSVKGRFTISRDNAKNTVYLQMNSLKPEDTAVYYCNAGNNVVVDYDYWGQGTQVTVSS	low polyreactivity
QVQLVESGGGLVQAGGSLRLSCAASGRIFRYYTMGWYRQAPGKERELVAAINSSCGSTYYADSVKGRFTISRDNAKNTVYLQMNSLIAEDTAVYYCNAVGYTGRYQFWRVWDVHGDYWGQGNQVTVSS	high polyreactivity
QVQLVESGGGLVPAGGSLRLSCAASGSMNTLYAMGWYRHAPGKERDLVADITRSGGSTYYADSVKGRFTISRDNAMNTVYLQMNSLKPEDTAVYYCAADKAPYSTEGDYWGQGTQVTVSS	high polyreactivity
QVQLVESGGGLVQAGGSLRLSCPASGFIYWSYAMGWYRQAPGKERELVADIDSDASTDYADSVKGRFTITRDNAKNTVYLQMNSLKPEDTAVYYCAALASIQQYPGNFYYWGQGTQVTVSS	high polyreactivity
QVQHVESGGGLVQAGGSLRLSCAASGRIIYRYAMGWYRQATGKERELVATITWSTTSTYYADSVKGRFTISREYAKNTVYLQMNSLKPVDTAVYYCAASIIPGFRRDPFGYWGQGTQVTVSS	low polyreactivity
QVQLVESGGRLVEAGGSLSLSWAASGRIFPKYPMGWYRQAPGKERELVAAISRRGSSTYYADSVQGRFTISRDNAKNTVYLQMNSLTPEDTAVYYCATDARDGHDYWGQGSQVTVSS	high polyreactivity
QVQLVESGGGLVQAGGSLRLSCAASGFTFESYAMGWYRQAPGKERELVAAISWNGGSTYYADSVKGRFTISRDNAKNTVYLQMNSLKPEDTAVYYCAARGRAPRFRRIGYDYWGQGTQVTVSS	high polyreactivity
QVQLVESGGGLVQAGGSLRLSCAHSGFIFSLYAMGWYIQAPGKERELVAAISRRGGNTYYADSVKGRFTISRDNGKNTVYLQMNSLKPVDTAVSYCNTGQRYGYDWGQGTQVTVSS	high polyreactivity
QVQLVESGGGLVQAGGSLRLSCAASGFTLSYYAMGWYRQAPRKERELVASISAIGGITYYADSVKGRFTISRDNAKNTVYLQMNSLKPEDSAVYYCIAGKRFTPYDYWGQGTQVTVSS	high polyreactivity
QVQLVESGGGLVQAGGSLRLSCAATGSIFARYAMGWYRQAPGKERELVAAIDQSAGSTYYADSVKGRFTISRDNAKNTVYLQMNSLKPEDTAVYYCNADFWYWWVNTYVGPGLGYWGQGTQVTVSS	high polyreactivity
QVQLVESGGGLVQAGGSLRLSCAASGFTLRKYAMGWYRQAPGKEREFVATSSSRAASTYYADSVKGRFTISRDNAQNPVYLQMNSLNQEDTAVYYCNKLSPYRGFYWGQGTQVTVSS	high polyreactivity
QVQLVESGGGLVQAGGSLRLSCDASGSIFRPNAMGWYRQPPGKERELVAAITWIAGGTYYADSVKGRFTISRDNAKNTVYLQMNSLKPEDTAVYYCAARWYFQTGVGRYYHYDYWGQGTQVTVSS	high polyreactivity
QVQLVESGGGLVQAGGSLRLSCAASGFTFYRYAMGWYRQAPGNERELVAAISSGGRTTYADSVKGRFTISRDNANNTVYLQMNSLKPQDTAVYYCVFVYVYDYYYWGQGTQVTVSS	high polyreactivity
QVQRVETAGRLVQARGSLRLSCAPSGIIFKRNAIGWYRQAPGKEREFVAAISSSGDTTYYADSVKGRFTISRDNAKNTVYLQMNSLKPEDTAVYYCAKPIRTSRARGMYYWGQGTEVTVSS	high polyreactivity
QVHLVESGGGLVQAGGSLRLSCDASGRLIARYAMGWHRPAPGKERELVAAISSGGRTYYADSVKGRFTISRDNAKNTVYLQMNSLKPEDTAVYYCAASSGGATRGHDYWGQGTQVTVSS	high polyreactivity
QVQLVQSRGGLVQAGGSLRLSCAASGYIFWYYVKGWNRQAPGKERELVASITIGGGRTYYADSVKGRFTISRDFAKNSVYLQMNCMKPEDTAVYYCAAVTTPYNSDFDYWGQGTQVTVSS	low polyreactivity
QVQVVESGGGLVQAGGSLRLSCAASGSTFVLNAMGWYRQAPGKERELVAAITYGGSTYYADSVKGRFTISRDNAKNTVYLQMNSLKPEDTAVYYCAVTYNGDSSWPGDYWGQGTQVTVSS	low polyreactivity
QVQLVESGGGLVQAGGSLRLSCAASGRTFTYYAMGWSRQAPGKERECVSAISSTGTSTYYADSVKGRFTISRDNAKNTVYLQMNSLKPEDTAVYYCNARVATYRLHSKFYYWGQGTQVTVSS	high polyreactivity
QVQLVESGGGLVQAGGSLRLSCAASGSTQYWNAMGWYRQAPGKERELVAAISRSGGSTYYADSVKGRFTISRDNAKNTVYLQINSLKPEDTAVYYCAARRYVPHTEYYYWGQGTQVTVSS	low polyreactivity
QVQLVESGGGLVQAGGSLRLSCAASGSIFWVNGMGWYRQAPGKERELVAAITWSGGSTYYADSVKGRFTISRDNAKNTVYLQMNSLKPEDTAVYYCAAYCQYYLWDGYGYWGQGTQVTVSS	low polyreactivity
